Series [1] can be described thus: Screening of amount of pH regulator: dissolution in intermediate solutions. It is filed as physicochemical. Conditions: 0.5% sodium citrate solution after mannitol was added and CR19213 was dissolved. The method, then:
The solubility of CR19213 is related to the pH value of a solution, and the amount of the pH regulator (expressed as the concentration of a buffer salt) directly influences the pH value of the solution. Therefore, the concentration of the buffer salt needs to be screened. Since CR19213 was added to the sodium citrate solution with pH 7.0, and completely dissolved to form an acidic solution, a 1.0% sodium citrate solution (11.4 mg/mL) with pH 7.5 (regulated with citric acid) was prepared in order to make the finished product be more near-neutral, and diluted with water to obtain sodium citrate solutions at concentrations of 0.1%, 0.25%, and 0.5%, respectively. Intermediate solutions were prepared using the above-mentioned sodium citrate solutions with different concentrations. The dissolution in the intermediate solutions during the preparation were investigated.
(1) a 1.0% sodium citrate solution with pH 7.5 (regulated with citric acid) was prepared for later use;
(2) dilution was carried out with water to obtain 0.1%, 0.25% and 0.5% sodium citrate solutions, respectively;
(3) a prescribed amount of mannitol was weighed, 70% of the total amount of the sodium citrate solution was added, stirring was carried out for dissolution, then a prescribed amount of CR19213 was added, and stirring was carried out for dissolution in a dark place at room temperature; and […]

Series [2] can be described thus: Stated solubility and sensitivity of CR19213.

The structures appear in SMILES notation.

`CCC(C)C(C(CC(=O)N1CCCC1C(OC)C(C)C(=O)NC(C)C(O)c1ccccc1)OC)N(C)C(=O)C(NC(=O)C(C(C)C)N(C)C(=O)OCc1ccc(NC(=O)C(CCCNC(N)=O)NC(=O)C(NC(=O)CCCCCN2C(=O)CC(SCC(NC(=O)C(CCCCN)NC(=O)C(CC(=O)O)NC(=O)C(CC(=O)O)NC(=O)Cc3ccc(CNC(=O)NCCCCC(NC(=O)NC(CCC(=O)O)C(=O)O)C(=O)O)cc3)C(=O)NC(CCCCNC(=O)CCC(NC(=O)c3ccc(NCc4cnc5[nH]c(N)nc(=O)c5n4)cc3)C(=O)O)C(N)=O)C2=O)C(C)C)cc1)C(C)C` (stereo not drawn) [CR19213]: the pH value in series [1] is 5.95. For the same compound, in series [2], the Oxidation in solution result is “easily oxidized”; the Sensitivity to temperature entry is reported as “sensitive”; the Solubility in water entry was “poorly soluble”; the “Stability to acids and alkalis” value is “unstable”. Also, in series [2] (raw material), the Sensitivity to illumination entry is “sensitive”.

(Values after patent US20240424106A1, “CONJUGATE PHARMACEUTICAL PREPARATION, PREPARATION METHOD THEREFOR AND USE THEREOF” (COHERENT BIOPHARMA (SUZHOU) LIMITED, priority 2021, published 2024).)
